Test results as given in US20220048967A1 (published 2022).
Changes are numbered by the printed parent chain. Numbered stars: 1 amine (or outer) side, 2 acyl side, 3 side chain; on linkers, the order of the positions; unused ones are H or OH. Square brackets hold non-standard residues; d marks the D form. Side chains are listed from the residue outwards. Ends that are not written are not given here. * marks the point of attachment. C20 diacid = O=C(O)CCCCCCCCCCCCCCCCCCC(=O)*; C18 diacid = O=C(O)CCCCCCCCCCCCCCCCC(=O)*; γGlu = O=C(O)[C@H](CCC(=O)[*:2])N[*:1]; AEEA = NCCOCCOCC(=O)O; Aib = CC(C)(N)C(=O)O

B1: Example 289 (peptide)
peptide: YXEGTFTSDYSIXLDKKAQXEFIEYLIAGGPSSGAPPPS
modifications: Aib2, αMeL13, (2-[2-(2-Amino-ethoxy)-ethoxy]-acetyl)2-(γ-Glu)-CO-(CH2)18-CO2H on K17, Aib20, C-terminal NH2
B2: Example 290 (peptide)
peptide: B1 peptide with Y1X
modifications: D-Tyr1, Aib2, αMeL13, (2-[2-(2-Amino-ethoxy)-ethoxy]-acetyl)2-(γ-Glu)-CO-(CH2)18-CO2H on K17, Aib20, C-terminal NH2
B3: Example 291 (peptide)
peptide: B1 peptide with Y1X, K16X, E21A, E24X
modifications: D-Tyr1, Aib2, αMeL13, Orn16, (2-[2-(2-Amino-ethoxy)-ethoxy]-acetyl)2-(γ-Glu)-CO-(CH2)18-CO2H on K17, Aib20, D-Glu24, C-terminal NH2
B4: Example 293 (peptide)
peptide: B1 peptide with Y1X, K16X, Y25X
modifications: D-Tyr1, Aib2, αMeL13, Orn16, (2-[2-(2-Amino-ethoxy)-ethoxy]-acetyl)2-(γ-Glu)-CO-(CH2)18-CO2H on K17, Aib20, αMeY25, C-terminal NH2
B5: Example 292 (peptide)
peptide: B1 peptide with Y1X, Y25X
modifications: D-Tyr1, Aib2, αMeL13, (2-[2-(2-Amino-ethoxy)-ethoxy]-acetyl)2-(γ-Glu)-CO-(CH2)18-CO2H on K17, Aib20, αMeY25, C-terminal NH2
B6: Example 297 (peptide)
peptide: Y[Aib]EGTFTSDYSILLDKK([AEEA-AEEA-γGlu-C18 diacid])AQ[Aib]EFIEYLIAGG-NH2
modifications: N-terminus assumed
SMILES: CC[C@H](C)[C@H](NC(=O)[C@H](CC(C)C)NC(=O)[C@H](Cc1ccc(O)cc1)NC(=O)[C@H](CCC(=O)O)NC(=O)[C@@H](NC(=O)[C@H](Cc1ccccc1)NC(=O)[C@H](CCC(=O)O)NC(=O)C(C)(C)NC(=O)[C@H](CCC(N)=O)NC(=O)[C@H](C)NC(=O)[C@H](CCCCNC(=O)COCCOCCNC(=O)COCCOCCNC(=O)CC[C@H](NC(=O)CCCCCCCCCCCCCCCCC(=O)O)C(=O)O)NC(=O)[C@H](CCCCN)NC(=O)[C@H](CC(=O)O)NC(=O)[C@H](CC(C)C)NC(=O)[C@H](CC(C)C)NC(=O)[C@@H](NC(=O)[C@H](CO)NC(=O)[C@H](Cc1ccc(O)cc1)NC(=O)[C@H](CC(=O)O)NC(=O)[C@H](CO)NC(=O)[C@@H](NC(=O)[C@H](Cc1ccccc1)NC(=O)[C@@H](NC(=O)CNC(=O)[C@H](CCC(=O)O)NC(=O)C(C)(C)NC(=O)[C@@H](N)Cc1ccc(O)cc1)[C@@H](C)O)[C@@H](C)O)[C@@H](C)CC)[C@@H](C)CC)C(=O)N[C@@H](C)C(=O)NCC(=O)NCC(N)=O
B7: Example 296 (peptide)
peptide: Y[Aib]EGTFTSDYSILLDKK([AEEA-AEEA-γGlu-C18 diacid])AQKAFIEYLIEGGPSSG-NH2
modifications: N-terminus assumed
SMILES: CC[C@H](C)[C@H](NC(=O)[C@H](CC(C)C)NC(=O)[C@H](Cc1ccc(O)cc1)NC(=O)[C@H](CCC(=O)O)NC(=O)[C@@H](NC(=O)[C@H](Cc1ccccc1)NC(=O)[C@H](C)NC(=O)[C@H](CCCCN)NC(=O)[C@H](CCC(N)=O)NC(=O)[C@H](C)NC(=O)[C@H](CCCCNC(=O)COCCOCCNC(=O)COCCOCCNC(=O)CC[C@H](NC(=O)CCCCCCCCCCCCCCCCC(=O)O)C(=O)O)NC(=O)[C@H](CCCCN)NC(=O)[C@H](CC(=O)O)NC(=O)[C@H](CC(C)C)NC(=O)[C@H](CC(C)C)NC(=O)[C@@H](NC(=O)[C@H](CO)NC(=O)[C@H](Cc1ccc(O)cc1)NC(=O)[C@H](CC(=O)O)NC(=O)[C@H](CO)NC(=O)[C@@H](NC(=O)[C@H](Cc1ccccc1)NC(=O)[C@@H](NC(=O)CNC(=O)[C@H](CCC(=O)O)NC(=O)C(C)(C)NC(=O)[C@@H](N)Cc1ccc(O)cc1)[C@@H](C)O)[C@@H](C)O)[C@@H](C)CC)[C@@H](C)CC)C(=O)N[C@@H](CCC(=O)O)C(=O)NCC(=O)NCC(=O)N1CCC[C@H]1C(=O)N[C@@H](CO)C(=O)N[C@@H](CO)C(=O)NCC(N)=O
B8: Example 288 (peptide)
peptide: Y[Aib]EGTFTSDYSILLDKK([AEEA-AEEA-γGlu-C20 diacid])AQ[Aib]AFIEYLIAGGPSSGAPPPS-NH2
modifications: N-terminus assumed
SMILES: CC[C@H](C)[C@H](NC(=O)[C@H](CC(C)C)NC(=O)[C@H](Cc1ccc(O)cc1)NC(=O)[C@H](CCC(=O)O)NC(=O)[C@@H](NC(=O)[C@H](Cc1ccccc1)NC(=O)[C@H](C)NC(=O)C(C)(C)NC(=O)[C@H](CCC(N)=O)NC(=O)[C@H](C)NC(=O)[C@H](CCCCNC(=O)COCCOCCNC(=O)COCCOCCNC(=O)CC[C@H](NC(=O)CCCCCCCCCCCCCCCCCCC(=O)O)C(=O)O)NC(=O)[C@H](CCCCN)NC(=O)[C@H](CC(=O)O)NC(=O)[C@H](CC(C)C)NC(=O)[C@H](CC(C)C)NC(=O)[C@@H](NC(=O)[C@H](CO)NC(=O)[C@H](Cc1ccc(O)cc1)NC(=O)[C@H](CC(=O)O)NC(=O)[C@H](CO)NC(=O)[C@@H](NC(=O)[C@H](Cc1ccccc1)NC(=O)[C@@H](NC(=O)CNC(=O)[C@H](CCC(=O)O)NC(=O)C(C)(C)NC(=O)[C@@H](N)Cc1ccc(O)cc1)[C@@H](C)O)[C@@H](C)O)[C@@H](C)CC)[C@@H](C)CC)C(=O)N[C@@H](C)C(=O)NCC(=O)NCC(=O)N1CCC[C@H]1C(=O)N[C@@H](CO)C(=O)N[C@@H](CO)C(=O)NCC(=O)N[C@@H](C)C(=O)N1CCC[C@H]1C(=O)N1CCC[C@H]1C(=O)N1CCC[C@H]1C(=O)N[C@@H](CO)C(N)=O
B9: Example 294 (peptide)
peptide: Y[Aib]EGTFTSDYSILLDKK([AEEA-AEEA-γGlu-C18 diacid])AQQAFIEYLIEGG-NH2
modifications: N-terminus assumed
SMILES: CC[C@H](C)[C@H](NC(=O)[C@H](CC(C)C)NC(=O)[C@H](Cc1ccc(O)cc1)NC(=O)[C@H](CCC(=O)O)NC(=O)[C@@H](NC(=O)[C@H](Cc1ccccc1)NC(=O)[C@H](C)NC(=O)[C@H](CCC(N)=O)NC(=O)[C@H](CCC(N)=O)NC(=O)[C@H](C)NC(=O)[C@H](CCCCNC(=O)COCCOCCNC(=O)COCCOCCNC(=O)CC[C@H](NC(=O)CCCCCCCCCCCCCCCCC(=O)O)C(=O)O)NC(=O)[C@H](CCCCN)NC(=O)[C@H](CC(=O)O)NC(=O)[C@H](CC(C)C)NC(=O)[C@H](CC(C)C)NC(=O)[C@@H](NC(=O)[C@H](CO)NC(=O)[C@H](Cc1ccc(O)cc1)NC(=O)[C@H](CC(=O)O)NC(=O)[C@H](CO)NC(=O)[C@@H](NC(=O)[C@H](Cc1ccccc1)NC(=O)[C@@H](NC(=O)CNC(=O)[C@H](CCC(=O)O)NC(=O)C(C)(C)NC(=O)[C@@H](N)Cc1ccc(O)cc1)[C@@H](C)O)[C@@H](C)O)[C@@H](C)CC)[C@@H](C)CC)C(=O)N[C@@H](CCC(=O)O)C(=O)NCC(=O)NCC(N)=O
B10: Example 295 (peptide)
peptide: Y[Aib]EGTFTSDYSILLDKK([AEEA-AEEA-γGlu-C18 diacid])AQHAFIEYLIEGG-NH2
modifications: N-terminus assumed
SMILES: CC[C@H](C)[C@H](NC(=O)[C@H](CC(C)C)NC(=O)[C@H](Cc1ccc(O)cc1)NC(=O)[C@H](CCC(=O)O)NC(=O)[C@@H](NC(=O)[C@H](Cc1ccccc1)NC(=O)[C@H](C)NC(=O)[C@H](Cc1c[nH]cn1)NC(=O)[C@H](CCC(N)=O)NC(=O)[C@H](C)NC(=O)[C@H](CCCCNC(=O)COCCOCCNC(=O)COCCOCCNC(=O)CC[C@H](NC(=O)CCCCCCCCCCCCCCCCC(=O)O)C(=O)O)NC(=O)[C@H](CCCCN)NC(=O)[C@H](CC(=O)O)NC(=O)[C@H](CC(C)C)NC(=O)[C@H](CC(C)C)NC(=O)[C@@H](NC(=O)[C@H](CO)NC(=O)[C@H](Cc1ccc(O)cc1)NC(=O)[C@H](CC(=O)O)NC(=O)[C@H](CO)NC(=O)[C@@H](NC(=O)[C@H](Cc1ccccc1)NC(=O)[C@@H](NC(=O)CNC(=O)[C@H](CCC(=O)O)NC(=O)C(C)(C)NC(=O)[C@@H](N)Cc1ccc(O)cc1)[C@@H](C)O)[C@@H](C)O)[C@@H](C)CC)[C@@H](C)CC)C(=O)N[C@@H](CCC(=O)O)C(=O)NCC(=O)NCC(N)=O

Experiments:
[1] = biological target: T1, human gastric inhibitory peptide receptor (GIPR) (human, UniProt P48546 22-466); assay: cell-based or functional assay
T1 sequence (looked up): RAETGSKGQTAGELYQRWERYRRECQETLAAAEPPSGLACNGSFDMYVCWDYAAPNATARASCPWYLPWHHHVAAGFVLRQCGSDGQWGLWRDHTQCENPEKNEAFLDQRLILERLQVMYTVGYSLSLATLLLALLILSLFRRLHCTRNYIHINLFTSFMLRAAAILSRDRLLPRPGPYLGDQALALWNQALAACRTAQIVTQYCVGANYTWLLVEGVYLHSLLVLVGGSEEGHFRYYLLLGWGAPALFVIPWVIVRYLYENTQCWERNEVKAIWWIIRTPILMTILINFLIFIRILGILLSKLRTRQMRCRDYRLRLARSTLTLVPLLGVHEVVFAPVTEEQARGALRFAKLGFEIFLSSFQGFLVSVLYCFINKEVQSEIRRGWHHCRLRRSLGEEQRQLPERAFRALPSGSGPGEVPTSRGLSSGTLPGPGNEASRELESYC

[2] = biological target: human GLP-1 receptor (GLP-1R) (human, UniProt P43220 24-463); assay: cell-based or functional assay

Binder | hGIPR cAMP EC50 ratio [1] | hGIPR cAMP Rel EC50 [1] | hGLP1R cAMP EC50 ratio [2] | hGLP1R cAMP Rel EC50 [2]
B1 | 4.13 | 0.0228 nM | 1.33 | 0.0544 nM
B2 | 1.09 | 0.0629 nM | 0.279 | 0.179 nM
B3 | 0.746 | 0.118 nM | 0.188 | 0.15 nM
B4 | 1.36 | 0.0562 nM | 0.197 | 0.132 nM
B5 | 1.1 | 0.0682 nM | 0.143 | 0.183 nM
B6 | 3 | 0.0451 nM | 0.445 | 0.111 nM
B7 | 0.564 | 0.198 nM | 0.82 | 0.0867 nM
B8 | 1.2 | 0.0732 nM | 0.393 | 0.172 nM
B9 | 0.75 | 0.183 nM | 0.249 | 0.185 nM
B10 | 0.481 | 0.281 nM | 0.398 | 0.116 nM
